# B1: Twister Ribozyme (parent)
# chain: AACACUGCCAAUGCCGGUCCCAAGCCCGGAUAAAAGUGGAGGGGGCGG
# Variants of: B1
# Test: self-cleavage, relative activity (ratio to wild type); higher = more cleavage; co-transcriptional
row,Variant,self-cleavage
1,G28A G44A,0.702
2,G28A G44C,0.718
3,G29A A33G,0.845
4,G29A A32U,0.949
5,G29A A32C,0.916
6,G28A G39U,0.16
7,G28C G29C,0.865
8,G28C G29U,0.98
9,G28C G39C,0.159
10,C27G G47C,0.0485
11,C27G G47U,0.0917
12,C27G G47A,0.0917
13,C27U A32G,0.697
14,G28C A33G,0.83
15,G28C A33C,0.745
16,C27G U31C,0.072
17,G28U G41A,0.459
18,G28U G41C,0.263
19,G28A G38A,0.821
20,G29A U37A,0.569
21,G29A U37G,0.395
22,G28C G43U,0.17
23,G29A A34G,0.684
24,G28A A30U,0.844

row,Variant,self-cleavage
1,G28A A30C,0.935
2,G28A A30G,0.938
3,G28U G39U,0.177
4,G28A G48A,0.775
5,G29A A40C,0.176
6,G29A A40U,0.204
7,G29A A40G,0.146
8,G28U A35U,0.888
9,G28U A35G,0.584
10,C27U G36U,0.158
11,C27U G36A,0.583
12,C27U G36C,0.21
13,C27U A30C,0.701
14,G28A G47U,0.576
15,G28A G47A,0.545
16,G28A G47C,0.283
17,G28U G47U,0.567
18,G28U G47A,0.374
19,G28C G45U,0.349
20,G28C G45C,0.155
21,G29A G44A,0.738
22,G29A G44U,0.922
23,G29A G44C,0.803
24,G28A G45A,0.653

row,Variant,self-cleavage
1,G28A G45C,0.185
2,G28A G45U,0.375
3,G28C U31A,0.814
4,G28C U31C,0.938
5,G28C U31G,0.739
6,G29A G45C,0.249
7,C27U G43A,0.211
8,C27U G43U,0.219
9,G28C A40U,0.17
10,G29A G41U,0.461
11,G29A G36C,0.246
12,G29A G36A,0.458
13,G28A G41A,0.385
14,G28C A34C,0.154
15,G28C A34G,0.491
16,C27U G41A,0.347
17,C27U G41U,0.345
18,C27U G41C,0.176
19,G29A G48A,0.874
20,G28U G43U,0.285
21,G28U G43A,0.221
22,G28U G43C,0.151
23,G29A,0.915
24,G29C,0.858

row,Variant,self-cleavage
1,G28A A33U,0.707
2,G28A A33G,0.781
3,C27U G44A,0.84
4,C27U G44C,0.777
5,G28U A32C,0.716
6,G28U A32G,0.777
7,G28U A32U,0.873
8,G28C G41A,0.408
9,G28C G41C,0.217
10,G28C G41U,0.332
11,C27U A33G,0.702
12,C27U A33U,0.709
13,G28U A33G,0.979
14,G28U A33U,0.833
15,G28U A33C,0.838
16,G28U G29C,0.928
17,G28U G29A,0.947
18,G28C G48A,0.405
19,G28A G36C,0.131
20,G28U A34C,0.205
21,G28U A34U,0.585
22,G28C G38A,0.743
23,C27U A35C,0.641
24,G28C C46G,0.565

row,Variant,self-cleavage
1,G28C C46U,0.841
2,G28C C46A,0.684
3,C27G U37C,0.102
4,C27G U37G,0.0978
5,C27U U31G,0.723
6,C27U U31A,0.792
7,G28U G38C,0.676
8,G28U G38A,0.763
9,G28C A32U,0.813
10,G28C A32G,0.734
11,G28U G45U,0.375
12,C27U G38A,0.72
13,C27U G38U,0.756
14,G28C G44A,0.782
15,G28U A30G,0.999
16,G28U A30C,0.968
17,G28A U37C,0.391
18,G28A U37G,0.331
19,G29A G39U,0.232
20,C27U U37A,0.444
21,C27U G39U,0.168
22,G29A A35G,0.657
23,G28U G44C,0.782
24,G28U G44U,0.879

row,Variant,self-cleavage
1,G28A A32C,0.941
2,G28A A32U,0.817
3,G28A A32G,0.835
4,G28A A34G,0.606
5,G28A A34C,0.175
6,G28U G36A,0.388
7,G28U G36C,0.232
8,G28A A35C,0.793
9,G28A A35U,0.847
10,G28U U31G,0.992
11,G29A G42A,0.284
12,G29A G42U,0.323
13,G28A G42U,0.261
14,G29A G47U,0.765
15,G29A G47A,0.689
16,G29A G47C,0.347
17,G28A C46A,0.682
18,G28A C46G,0.864
19,G28U C46A,0.778
20,G28U C46G,0.765
21,G28U G42A,0.26
22,G28C G47C,0.254
23,G28A G29A,0.898
24,G29A G43U,0.326

row,Variant,self-cleavage
1,G29A G43A,0.195
2,G29A G43C,0.163
3,C27U A34G,0.483
4,C27U G45U,0.638
5,C27U G48A,0.633
6,C27U G48U,0.942
7,C27U G28C,0.568
8,C27U G28U,0.501
9,G29A C46U,0.948
10,G29A C46A,0.922
11,C27U,0.876
12,G28C G36C,0.173
13,G28C G36A,0.292
14,G28C U37C,0.267
15,G28C A30G,0.77
16,G28C A30C,0.848
17,C27U C46A,0.825
18,G29A G38U,0.634
19,C27G G48U,0.0985
20,G28U U37C,0.431
21,G28U U37G,0.168
22,G28U U37A,0.348
23,G28A U31C,0.835

# — the RNAGym collection of RNA variant scans (doi:10.7554/elife.80360)
